For three substances, Kd results are on record in patent US20050070690A1.

In general, Kd refers to a measure of binding affinity in units of concentration. Lower therefore signals higher affinity.

Test [1] has as its target nerve growth factor. The experiment in a line: SPR (BiaCore), TrkIg2 amine-coupled to CM5 chip, NGF passed over at 0.1-100 nM, 1:1 Langmuir model. On the technique in general: Surface plasmon resonance follows binding to a sensor surface in real time, without labels.
Test [2] concerns the target neurotrophin-4. Kind of test: SPR (BiaCore), TrkIg2 amine-coupled to CM5 chip, NT-4 passed over at 1-100 nM, 1:1 Langmuir model.
Test [3] concerns the target brain derived neurotrophic factor. The experiment in a line: SPR (BiaCore), TrkIg2 amine-coupled to CM5 chip, BDNF passed over at 0.1-25 nM, 1:1 Langmuir model.

Consider “TrkAIg2.66His (from UniProt P04629) (receptor)”, for which the Kd in test [1] is 0.0792 nM.

The substance “TrkAIg26His (from UniProt P04629-2) (receptor)” yielded a Kd in test [1] of 0.0926 nM. This Kd and that of the substance before are within 1.5-fold of each other.

On to “TrkBIg26His (from UniProt Q16620) (receptor)”, for which the Kd in test [2] turned out to be 0.26 nM; in test [3], 0.79 nM.
